The record followed here is IntAct's records for PubMed 15328353.

To fix the notation:
B1: Plasminogen activator inhibitor 1 (Mus musculus), P22777 (parent)
chain: MQMSSALACLILGLVLVSGKGFTLPLRESHTAHQATDFGVKVFQQVVQASKDRNVVFSPYGVSSVLAMLQMTTAGKTRRQIQDAMGFKVNEKGTAHALRQLSKELMGPWNKNEISTADAIFVQRDLELVQGFMPHFFKLFQTMVKQVDFSEVERARFIINDWVERHTKGMINDLLAKGAVDELTRLVLVNALYFSGQWKTPFLEASTHQRLFHKSDGSTVSVPMMAQSNKFNYTEFTTPDGLEYDVVELPYQRDTLSMFIAAPFEKDVHLSALTNILDAELIRQWKGNMTRLPRLLILPKFSLETEVDLRGPLEKLGMPDMFSATLADFTSLSDQEQLSVAQALQKVRIEVNESGTVASSSTAFVISARMAPTEMVIDRSFLFVVRHNPTETILFMGQVMEP
partner: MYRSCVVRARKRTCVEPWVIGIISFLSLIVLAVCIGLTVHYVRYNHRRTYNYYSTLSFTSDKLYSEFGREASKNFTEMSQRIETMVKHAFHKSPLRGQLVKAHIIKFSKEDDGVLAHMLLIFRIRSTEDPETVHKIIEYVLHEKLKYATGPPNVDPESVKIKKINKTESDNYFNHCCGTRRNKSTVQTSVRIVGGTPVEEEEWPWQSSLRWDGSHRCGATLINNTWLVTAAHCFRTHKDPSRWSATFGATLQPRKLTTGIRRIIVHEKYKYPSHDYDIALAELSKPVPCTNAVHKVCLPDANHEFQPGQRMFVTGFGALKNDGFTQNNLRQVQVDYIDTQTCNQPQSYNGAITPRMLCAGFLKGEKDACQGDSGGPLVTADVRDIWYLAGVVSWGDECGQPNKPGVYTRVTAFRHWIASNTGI
B2: Plasma serine protease inhibitor (Mus musculus), P70458 (parent)
chain: MRFFPILCLVLFISHGVASRRHSHSKKKKAKESSVGAVGPPSSKDFAFRLYRALVSESPGQNVFFSPLSVSMSLGMLSLGAGLKTKTQILDGLGLSLQQGQEDKLHKGFQQLLQRFRQPSDGLQLSLGSALFKDPAVHIRDDFLSAMKTLYMSDTFSTNFGNPEIAKKQINNYVAKQTKGKIVDFIKDLDSTHVMIVVNYIFFKAKWQTAFSETNTHKMDFHVTPKRTTQVPMMNREDGYSYYLDQNISCTVVGIPYQGNAIALFILPSEGKMKQVEDGLDERTLRNWLKMFTKRRLDLYLPKFSIEATYKLENVLPKLGIQDVFTTHADLSGITDHTNIKLSEMVHKSMMEVEESGTTAAAITGAIFTFRSARPSSLKIEFTRPFLLTLMEDSHILFVGKVTRP
partner: B1 partner

Variants of B1 are the subject of the first experiment. The following applies: with tm11e_mouse Tmprss11e.
MQMSSALACLILGLVLVSGKGFTLPLRESHTAHQATDFGVKVFQQVVQASKDRNVVFSPYGVSSVLAMLQMTTAGKTRRQIQDAMGFKVNEKGTAHALRQLSKELMGPWNKNEISTADAIFVQRDLELVQGFMPHFFKLFQTMVKQVDFSEVERARFIINDWVERHTKGMINDLLAKGAVDELTRLVLVNALYFSGQWKTPFLEASTHQRLFHKSDGSTVSVPMMAQSNKFNYTEFTTPDGLEYDVVELPYQRDTLSMFIAAPFEKDVHLSALTNILDAELIRQWKGNMTRLPRLLILPKFSLETEVDLRGPLEKLGMPDMFSATLADFTSLSDQEQLSVAQALQKVRIEVNESGTVASSSTAFVISAAMAPTEMVIDRSFLFVVRHNPTETILFMGQVMEP [R369A]: the “effect of a mutation on the interaction” value is reported as “decreasing interaction”. Still for that read-out and setting: the value for MQMSSALACLILGLVLVSGKGFTLPLRESHTAHQATDFGVKVFQQVVQASKDRNVVFSPYGVSSVLAMLQMTTAGKTRRQIQDAMGFKVNEKGTAHALRQLSKELMGPWNKNEISTADAIFVQRDLELVQGFMPHFFKLFQTMVKQVDFSEVERARFIINDWVERHTKGMINDLLAKGAVDELTRLVLVNALYFSGQWKTPFLEASTHQRLFHKSDGSTVSVPMMAQSNKFNYTEFTTPDGLEYDVVELPYQRDTLSMFIAAPFEKDVHLSALTNILDAELIRQWKGNMTRLPRLLILPKFSLETEVDLRGPLEKLGMPDMFSATLADFTSLSDQEQLSVAQALQKVRIEVNESGRVRSSSTAFVISARMAPTEMVIDRSFLFVVRHNPTETILFMGQVMEP [T356R;A358R] was “decreasing interaction”.

The variants in another experiment derive from B2. To be noted: with tm11e_mouse Tmprss11e.
Turning to MRFFPILCLVLFISHGVASRRHSHSKKKKAKESSVGAVGPPSSKDFAFRLYRALVSESPGQNVFFSPLSVSMSLGMLSLGAGLKTKTQILDGLGLSLQQGQEDKLHKGFQQLLQRFRQPSDGLQLSLGSALFKDPAVHIRDDFLSAMKTLYMSDTFSTNFGNPEIAKKQINNYVAKQTKGKIVDFIKDLDSTHVMIVVNYIFFKAKWQTAFSETNTHKMDFHVTPKRTTQVPMMNREDGYSYYLDQNISCTVVGIPYQGNAIALFILPSEGKMKQVEDGLDERTLRNWLKMFTKRRLDLYLPKFSIEATYKLENVLPKLGIQDVFTTHADLSGITDHTNIKLSEMVHKSMMEVEESGTTAAAITGAIFTFRSAAPSSLKIEFTRPFLLTLMEDSHILFVGKVTRP [R374A], the “effect of a mutation on the interaction” value is “decreasing interaction”.
